The values that follow come from patent publication US20160193299A1, “MODIFIED NUCLEOSIDE, NUCLEOTIDE, AND NUCLEIC ACID COMPOSITIONS” (Moderna Therapeutics, Inc., priority 2011, published 2016).

The nature of data set [1]: Stability of modified RNA on storage (gel electrophoresis). The format is physicochemical. The method, then:
Stability experiments were conducted to obtain a better understanding of storage conditions to retain the integrity of modified RNA. […] After the mRNA had been stored for 0 hours, 2 hours, 6 hours, 24 hours, 48 hours, 5 days and 14 days, the mRNA was analyzed by gel electrophoresis using a Bio-Rad EXPERION′ system. The modified, unmodified and lipoplexed G-CSF mRNA was also stored in RNASTABLE® (Biomatrica, Inc. San Diego, Calif.) at 40° C. or water at −80° C. or 40° C. for 35 days before being analyzed by gel electrophoresis.
mRNA samples stored at 4° C., 25° C. and 37° C. were stored in 1× TE buffer or the formulation buffer (150 mM sodium chloride, 2 mM calcium chloride, 2 mM phosphate, 0.5 mM EDTA at a pH of 6.5). The mRNA stored at 4° C. was stable to at least 60 days in both the TE and formulation buffer. At 25° C. the mRNA in formulation buffer was stable out to 14 days and the TE buffer was stable out to at least 6 days. Storage of mRNA in the formulation buffer at 37° C. was stable to 6 days compared to the TE buffer which was stable only until 4 days.

In data set [2] the test system is Female BALB/C mice. As to the kind of experiment: In vivo detection of innate immune response: human G-CSF and mouse IFN-alpha in serum after I.M. injection. The conditions noted are these: mouse IFN-alpha in serum; I.M., 200 ug/mouse mRNA (R848 75 ug); 8 hours after dosing.
Protocol: Blood is collected at 8 hours after dosing and using ELISA the protein levels of G-CSF and interferon-alpha (IFN-alpha) is determined by ELISA and are shown in Table 81.
The subject of data set [3] is neutrophil count. In words: Example 41 intravenous administration of lipoplexed G-CSF mRNA, neutrophil count. The class given is in vivo. The conditions noted are these: mice IV, 10% lipoplex, 50 ug at days 0, 2, 4; day 5. The method, then: Neutrophils were measured at days 1, 5 and 8. Controls included non-specific mammalian RNA or the formulation buffer alone (F.Buffer). The mice were bled at days 1, 5 and 8 to determine the effect of mRNA-encoded human G-CSF to increase neutrophil count. The dosing regimen is shown in Table 64 as are the resulting neutrophil counts (thousands/uL; K/uL).

Data set [4] has as its system peripheral blood mononuclear cells (PBMC). As to the kind of experiment: G-CSF expression in PBMC transfected with partially modified G-CSF mRNA (ELISA). The format is cell-based, human. Conditions: for G-CSF Expression: ELISA 22 hours after transfection. The method, then: 480 ng of G-CSF mRNA modified with 5-methylcytosine (5mC) and pseudouridine (pseudoU) or unmodified G-CSF mRNA was transfected with 0.4 uL of Lipofectamine 2000 into peripheral blood mononuclear cells (PBMC) from three normal blood donors (D1, D2, and D3). […] The supernatant was harvested and run by ELISA 22 hours after transfection to determine the protein expression. The expression of IFN-alpha and TNF-alpha may be a secondary effect from the transfection of the G-CSF mRNA.

The test system is the same in data set [5]. As to the kind of experiment: Modified RNA transfected in PBMC: IFN-alpha and TNF-alpha at 6 and 18 hours (ELISA). The format is cell-based, human. The method, then:
(§1) 500 ng of G-CSF mRNA modified with 5-methylcytosine (5mC) and pseudouridine (pseudoU) or unmodified G-CSF mRNA was transfected with 0.4 uL of Lipofectamine 2000 into peripheral blood mononuclear cells (PBMC) from three normal blood donors (D1, D2, and D3). […] The supernatant was harvested 6 hours and 18 hours after transfection and run by ELISA to determine the protein expression. The expression of G-CSF, IFN-alpha, and TNF-alpha for Donor 1 is shown in Table 86, Donor 2 is shown in Table 87 and Donor 3 is shown in Table 88.

The test system is the same in data set [6]. As to the kind of experiment: Modified RNA transfected in PBMC: G-CSF expression at 6 and 18 hours (ELISA). The format is cell-based, human. The method, then: as §1
For data set [7] the test system is unchanged. In words: IFN-alpha and TNF-alpha expression in transfected PBMC (ELISA) and PC ratio. The conditions noted are these: for IFN-alpha expression / TNF-alpha Expression: ELISA 22 hours after transfection. The format is cell-based, human. The method, then: The supernatant was harvested and run by ELISA 22 hours after transfection to determine the protein expression.

The subject of data set [8] is HEK293. As to the kind of experiment: Example 46B percent-modified G-CSF mRNA transfected in HEK293, secreted G-CSF ELISA. The format is cell-based, human. Conditions: HEK293, 250 ng mRNA with RNAiMAX, supernatant after 16 hours.
Protocol: Human embryonic kidney epithelial (HEK293) cells were seeded on 96-well plates at a density of 30,000 cells per well in 100 ul cell culture medium. 250 ng of modified G-CSF mRNA (SEQ ID NO: 6; polyA tail of approximately 160 nucleotides not shown in sequence; 5′cap, Cap1) formulated with RNAiMAX™ (Invitrogen, Carlsbad, Calif.) was added to a well. The G-CSF was completely modified with 5mC and pseudoU (100% modification), not modified with 5mC and pseudoU (0% modification) or was partially modified with 5mC and pseudoU so the mRNA would contain 75% modification, 50% modification or 25% modification. Control samples (AK 5/2, mCherry (SEQ ID NO: 7; polyA tail of approximately 160 nucleotides not shown in sequence; 5′cap, Cap1; fully modified 5mC and pseudoU) and untreated) were also analyzed. […] The supernatants were harvested after 16 hours and the secreted G-CSF protein was analyzed by ELISA.
The test system of data set [9] is peripheral blood mononuclear cells (PBMC). As to the kind of experiment: Example 46A percent-modified G-CSF mRNA transfected in PBMC, G-CSF ELISA. The format is cell-based, human. The method, then:
960 ng of G-CSF mRNA modified with 5-methylcytosine (5mC) and pseudouridine (pseudoU) or unmodified G-CSF mRNA was transfected with 0.8 uL of Lipofectamine 2000 into peripheral blood mononuclear cells (PBMC) from three normal blood donors (D1, D2, D3). […] The supernatant was harvested and run by ELISA 22 hours after transfection to determine the protein expression. The expression of IFN-alpha and TNF-alpha may be a secondary effect from the transfection of the G-CSF mRNA.

Where [10] appears, read: PBMC, from averages of Tables 83 and 84.

B1: Unmodified G-CSF mRNA: human G-CSF mRNA SEQ ID NO: 6 having no modifications (natural NTPs) (nucleic acid, listed as Homo sapiens)
chain: GGGAAAUAAGAGAGAAAAGAAGAGUAAGAAGAAAUAUAAGAGCCACCAUGGCCGGUCCCGCGACCCAAAGCCCCAUGAAACUUAUGGCCCUGCAGUUGCUGCUUUGGCACUCGGCCCUCUGGACAGUCCAAGAAGCGACUCCUCUCGGACCUGCCUCAUCGUUGCCGCAGUCAUUCCUUUUGAAGUGUCUGGAGCAGGUGCGAAAGAUUCAGGGCGAUGGAGCCGCACUCCAAGAGAAGCUCUGCGCGACAUACAAACUUUGCCAUCCCGAGGAGCUCGUACUGCUCGGGCACAGCUUGGGGAUUCCCUGGGCUCCUCUCUCGUCCUGUCCGUCGCAGGCUUUGCAGUUGGCAGGGUGCCUUUCCCAGCUCCACUCCGGUUUGUUCUUGUAUCAGGGACUGCUGCAAGCCCUUGAGGGAAUCUCGCCAGAAUUGGGCCCGACGCUGGACACGUUGCAGCUCGACGUGGCGGAUUUCGCAACAACCAUCUGGCAGCAGAUGGAGGAACUGGGGAUGGCACCCGCGCUGCAGCCCACGCAGGGGGCAAUGCCGGCCUUUGCGUCCGCGUUUCAGCGCAGGGCGGGUGGAGUCCUCGUAGCGAGCCACCUUCAAUCAUUUUUGGAAGUCUCGUACCGGGUGCUGAGACAUCUUGCGCAGCCGUGAAGCGCUGCCUUCUGCGGGGCUUGCCUUCUGGCCAUGCCCUUCUUCUCUCCCUUGCACCUGUACCUCUUGGUCUUUGAAUAAAGCCUGAGUAGGAAG
For the molecule B1, the freeze/thaw cycles tolerated in data set [1] amounted to 12 cycles. Also, the IFN-alpha expression result in data set [2] is on record as “robust cytokine response”. In addition, the “increase in neutrophil count above control” value in data set [3] is “no pharmacologic effect”.

B2: 100% modification: G-CSF mRNA (SEQ ID NO: 6, Cap1) completely modified with 5mC and pseudoU (nucleic acid, listed as Homo sapiens)
chain: GGGAAAUAAGAGAGAAAAGAAGAGUAAGAAGAAAUAUAAGAGCCACCAUGGCCGGUCCCGCGACCCAAAGCCCCAUGAAACUUAUGGCCCUGCAGUUGCUGCUUUGGCACUCGGCCCUCUGGACAGUCCAAGAAGCGACUCCUCUCGGACCUGCCUCAUCGUUGCCGCAGUCAUUCCUUUUGAAGUGUCUGGAGCAGGUGCGAAAGAUUCAGGGCGAUGGAGCCGCACUCCAAGAGAAGCUCUGCGCGACAUACAAACUUUGCCAUCCCGAGGAGCUCGUACUGCUCGGGCACAGCUUGGGGAUUCCCUGGGCUCCUCUCUCGUCCUGUCCGUCGCAGGCUUUGCAGUUGGCAGGGUGCCUUUCCCAGCUCCACUCCGGUUUGUUCUUGUAUCAGGGACUGCUGCAAGCCCUUGAGGGAAUCUCGCCAGAAUUGGGCCCGACGCUGGACACGUUGCAGCUCGACGUGGCGGAUUUCGCAACAACCAUCUGGCAGCAGAUGGAGGAACUGGGGAUGGCACCCGCGCUGCAGCCCACGCAGGGGGCAAUGCCGGCCUUUGCGUCCGCGUUUCAGCGCAGGGCGGGUGGAGUCCUCGUAGCGAGCCACCUUCAAUCAUUUUUGGAAGUCUCGUACCGGGUGCUGAGACAUCUUGCGCAGCCGUGAAGCGCUGCCUUCUGCGGGGCUUGCCUUCUGGCCAUGCCCUUCUUCUCUCCCUUGCACCUGUACCUCUUGGUCUUUGAAUAAAGCCUGAGUAGGAAG
modifications: Cap1; fully 5-methylcytidine and pseudouridine modified
Consider B2, for which the “G-CSF Expression” value in data set [4] (PBMC donor D1, 480 ng mRNA + Lipofectamine 2000) came to 1968.9 pg/mL; in data set [4] (PBMC donor D2, 480 ng mRNA) it was 2595.6 pg/mL; in data set [4] (PBMC donor D3, 480 ng mRNA) it was 2835.7 pg/mL; in data set [8], 118.4 ng/mL; in data set [9] (PBMC donor D1, 960 ng mRNA) it was 270.3 pg/mL; in data set [9] (PBMC donor D2, 960 ng mRNA), 151.6 pg/mL. The “G-CSF Expression” value in data set [9] (PBMC donor D3, 960 ng mRNA) was determined as 162.2 pg/mL. In addition, in data set [4] (average of PBMC donors D1-D3), the “Average G-CSF” value was 2466 pg/mL. Further, the IFN-alpha in data set [5] (PBMC Donor 1, 6 hours) is 1 pg/mL; in data set [5] (PBMC Donor 1, 18 hours) it was 13 pg/mL; in [5] (PBMC Donor 2, 6 hours), 0 pg/mL; in [5] (PBMC Donor 2, 18 hours) it was 7 pg/mL; in data set [5] (PBMC Donor 3, 6 hours) it was 7 pg/mL; in data set [5] (PBMC Donor 3, 18 hours), 658 pg/mL. In addition, the TNF-alpha in data set [5] (PBMC Donor 1, 6 hours) was determined as 0 pg/mL; in data set [5] (PBMC Donor 1, 18 hours), 0 pg/mL; in data set [5] (PBMC Donor 2, 6 hours), 0 pg/mL; in [5] (PBMC Donor 2, 18 hours), 11 pg/mL; in data set [5] (PBMC Donor 3, 6 hours), 11 pg/mL; in data set [5] (PBMC Donor 3, 18 hours), 11 pg/mL. For the same molecule, the G-CSF in data set [6] (PBMC Donor 1, 500 ng mRNA, 6 hours) worked out at 1815 pg/mL; in data set [6] (PBMC Donor 1, 18 hours), 2224 pg/mL; in data set [6] (PBMC Donor 2, 6 hours), 2184 pg/mL; in data set [6] (PBMC Donor 2, 18 hours), 2432 pg/mL; in [6] (PBMC Donor 3, 6 hours), 6086 pg/mL; in data set [6] (PBMC Donor 3, 18 hours), 7549 pg/mL. The “ratio of protein/cytokine production versus natural G-CSF mRNA, IFN-alpha” value in data set [7] (PBMC) worked out at 100 fold. Besides, the “ratio of protein/cytokine production versus natural G-CSF mRNA, TNF-alpha” value in [7] (PBMC) is reported as 27 fold. Also, the “IFN-alpha expression” value is 336.5 pg/mL in data set [7] (PBMC donor D1), 78.0 pg/mL in data set [7] (PBMC donor D2) and 46.4 pg/mL in data set [7] (PBMC donor D3). The “TNF-alpha Expression” value was found to be 115.0 pg/mL in [7] (PBMC donor D1), 15.0 pg/mL in data set [7] (PBMC donor D2) and 11.1 pg/mL in data set [7] (PBMC donor D3). The “G-CSF/IFN-alpha (PC ratio)” value in data set [7] (setting [10]) is reported as 16. The “G-CSF/TNF-alpha (PC ratio)” value in data set [7] (setting [10]) came to 52. The “Average IFN-a” value in [7] (average of PBMC donors D1-D3) was 153 pg/mL. Besides, in data set [7] (average of PBMC donors D1-D3), the “Average TNF-a” value was 47 pg/mL.
